# Measured values published in patent US20150267232A1, “IN VIVO AND IN VITRO CARBENE INSERTION AND NITRENE TRANSFER REACTIONS CATALYZED BY HEME ENZYMES” (California Institute of Technology, priority 2012, published 2015).
# Test: P450BM3 compilation plate screen (GC, cyclopropane peaks)
# Format: biochemical
# Conditions: P450BM3 variants
molecule,measurement,setting,value
"CYP102A3: CYP102A3, related P450 from Bacillus subtilis (protein, UniProt O08336 1-1054, looked up) Bifunctional cytochrome …: MKQASAIPQPKTYGPLKNLPHLEKEQLSQSLWRIADELGPIFRFDFPGVSSVFVSGHNLVAEVCDEKRFDKNLGKGLQKVREFGGDGLFTSWTHEPNWQKAHRILLPSFSQKAMKGYHSMMLDIATQLIQKWSRLNPNEEIDVADDMTRLTLDTIGLCGFNYRFNSFYRDSQHPFITSMLRALKEAMNQSKRLGLQDKMMVKTKLQFQKDIEVMNSLVDRMIAERKANPDENIKDLLSLMLYAKDPVTGETLDDENIRYQIITFLIAGHETTSGLLSFAIYCLLTHPEKLKKAQEEADRVLTDDTPEYKQIQQLKYIRMVLNETLRLYPTAPAFSLYAKEDTVLGGEYPISKGQPVTVLIPKLHRDQNAWGPDAEDFRPERFEDPSSIPHHAYKPFGNGQRACIGMQFALQEATMVLGLVLKHFELINHTGYELKIKEALTIKPDDFKITVKPRKTAAINVQRKEQADIKAETKPKETKPKHGTPLLVLFGSNLGTAEGIAGELAAQGRQMGFTAETAPLDDYIGKLPEEGAVVIVTASYNGAPPDNAAGFVEWLKELEEGQLKGVSYAVFGCGNRSWASTYQRIPRLIDDMMKAKGASRLTAIGEGDAADDFESHRESWENRFWKETMDAFDINEIAQKEDRPSLSITFLSEATETPVAKAYGAFEGIVLENRELQTAASTRSTRHIELEIPAGKTYKEGDHIGILPKNSRELVQRVLSRFGLQSNHVIKVSGSAHMAHLPMDRPIKVVDLLSSYVELQEPASRLQLRELASYTVCPPHQKELEQLVSDDGIYKEQVLAKRLTMLDFLEDYPACEMPFERFLALLPSLKPRYYSISSSPKVHANIVSMTVGVVKASAWSGRGEYRGVASNYLAELNTGDAAACFIRTPQSGFQMPNDPETPMIMVGPGTGIAPFRGFIQARSVLKKEGSTLGEALLYFGCRRPDHDDLYREELDQAEQDGLVTIRRCYSRVENEPKGYVQHLLKQDTQKLMTLIEKGAHIYVCGDGSQMAPDVERTLRLAYEAEKAASQEESAVWLQKLQDQRRYVKDVWTGM",ee (cis),"(R,S)-(S,R), chiral β-CDX GC",−8
same,de,diastereomeric excess = ([cis] − [trans])/([cis] + [trans]),−74
same,Absolute activity,sum of the area of the cyclopropane peaks over the area of the internal standard,0.004053
